{"source": "patent US20220025010A1", "about": "(ANTAG THERAPEUTICS, published 2022)", "binders": {"B1": {"name": "AT383 (peptide)", "peptide": "SGTFISDYSIAMDRIK([AEEA-AEEA-AEEA-γGlu-C16 diacid])QQDFVNWLLAQR-NH2", "modifications": "N-terminus assumed", "SMILES": "CC[C@H](C)[C@H](NC(=O)[C@H](CO)NC(=O)[C@H](Cc1ccc(O)cc1)NC(=O)[C@H](CC(=O)O)NC(=O)[C@H](CO)NC(=O)[C@@H](NC(=O)[C@H](Cc1ccccc1)NC(=O)[C@@H](NC(=O)CNC(=O)[C@@H](N)CO)[C@@H](C)O)[C@@H](C)CC)C(=O)N[C@@H](C)C(=O)N[C@@H](CCSC)C(=O)N[C@@H](CC(=O)O)C(=O)N[C@@H](CCCNC(=N)N)C(=O)N[C@H](C(=O)N[C@@H](CCCCNC(=O)COCCOCCNC(=O)COCCOCCNC(=O)COCCOCCNC(=O)CC[C@H](NC(=O)CCCCCCCCCCCCCCC(=O)O)C(=O)O)C(=O)N[C@@H](CCC(N)=O)C(=O)N[C@@H](CCC(N)=O)C(=O)N[C@@H](CC(=O)O)C(=O)N[C@@H](Cc1ccccc1)C(=O)N[C@H](C(=O)N[C@@H](CC(N)=O)C(=O)N[C@@H](Cc1c[nH]c2ccccc12)C(=O)N[C@@H](CC(C)C)C(=O)N[C@@H](CC(C)C)C(=O)N[C@@H](C)C(=O)N[C@@H](CCC(N)=O)C(=O)N[C@@H](CCCNC(=N)N)C(N)=O)C(C)C)[C@@H](C)CC"}, "B2": {"name": "AT498 (peptide)", "peptide": "SGTFISDYSIAMDRIK(C16 diacid)QQDFVNWLLAQR-NH2", "modifications": "N-terminus assumed", "SMILES": "CC[C@H](C)[C@H](NC(=O)[C@H](CO)NC(=O)[C@H](Cc1ccc(O)cc1)NC(=O)[C@H](CC(=O)O)NC(=O)[C@H](CO)NC(=O)[C@@H](NC(=O)[C@H](Cc1ccccc1)NC(=O)[C@@H](NC(=O)CNC(=O)[C@@H](N)CO)[C@@H](C)O)[C@@H](C)CC)C(=O)N[C@@H](C)C(=O)N[C@@H](CCSC)C(=O)N[C@@H](CC(=O)O)C(=O)N[C@@H](CCCNC(=N)N)C(=O)N[C@H](C(=O)N[C@@H](CCCCNC(=O)CCCCCCCCCCCCCCC(=O)O)C(=O)N[C@@H](CCC(N)=O)C(=O)N[C@@H](CCC(N)=O)C(=O)N[C@@H](CC(=O)O)C(=O)N[C@@H](Cc1ccccc1)C(=O)N[C@H](C(=O)N[C@@H](CC(N)=O)C(=O)N[C@@H](Cc1c[nH]c2ccccc12)C(=O)N[C@@H](CC(C)C)C(=O)N[C@@H](CC(C)C)C(=O)N[C@@H](C)C(=O)N[C@@H](CCC(N)=O)C(=O)N[C@@H](CCCNC(=N)N)C(N)=O)C(C)C)[C@@H](C)CC"}, "B3": {"name": "AT504 (peptide)", "peptide": "SGTFISDYSIAMDRIKQQDFVNWLLAQR", "HELM": "PEPTIDE1{S.G.T.F.I.S.D.Y.S.I.A.M.D.R.I.K.Q.Q.D.F.V.N.W.L.L.A.Q.R.[am]}|PEPTIDE2{[O=C(O)CCCCCCCCCCCCCCC(=O)[*:2]].[gGlu]}$PEPTIDE1,PEPTIDE2,16:R3-2:R2$$$V2.0; N-terminus assumed", "SMILES": "CC[C@H](C)[C@H](NC(=O)[C@H](CO)NC(=O)[C@H](Cc1ccc(O)cc1)NC(=O)[C@H](CC(=O)O)NC(=O)[C@H](CO)NC(=O)[C@@H](NC(=O)[C@H](Cc1ccccc1)NC(=O)[C@@H](NC(=O)CNC(=O)[C@@H](N)CO)[C@@H](C)O)[C@@H](C)CC)C(=O)N[C@@H](C)C(=O)N[C@@H](CCSC)C(=O)N[C@@H](CC(=O)O)C(=O)N[C@@H](CCCNC(=N)N)C(=O)N[C@H](C(=O)N[C@@H](CCCCNC(=O)CC[C@H](NC(=O)CCCCCCCCCCCCCCC(=O)O)C(=O)O)C(=O)N[C@@H](CCC(N)=O)C(=O)N[C@@H](CCC(N)=O)C(=O)N[C@@H](CC(=O)O)C(=O)N[C@@H](Cc1ccccc1)C(=O)N[C@H](C(=O)N[C@@H](CC(N)=O)C(=O)N[C@@H](Cc1c[nH]c2ccccc12)C(=O)N[C@@H](CC(C)C)C(=O)N[C@@H](CC(C)C)C(=O)N[C@@H](C)C(=O)N[C@@H](CCC(N)=O)C(=O)N[C@@H](CCCNC(=N)N)C(N)=O)C(C)C)[C@@H](C)CC"}, "B4": {"name": "AT502 (peptide)", "peptide": "GGTFISDYSIAMDRIKQQDFVNWLLAQR", "HELM": "PEPTIDE1{G.G.T.F.I.S.D.Y.S.I.A.M.D.R.I.K.Q.Q.D.F.V.N.W.L.L.A.Q.R.[am]}|PEPTIDE2{[O=C(O)CCCCCCCCCCCCCCC(=O)[*:2]].[gGlu]}$PEPTIDE1,PEPTIDE2,16:R3-2:R2$$$V2.0; N-terminus assumed", "SMILES": "CC[C@H](C)[C@H](NC(=O)[C@H](CO)NC(=O)[C@H](Cc1ccc(O)cc1)NC(=O)[C@H](CC(=O)O)NC(=O)[C@H](CO)NC(=O)[C@@H](NC(=O)[C@H](Cc1ccccc1)NC(=O)[C@@H](NC(=O)CNC(=O)CN)[C@@H](C)O)[C@@H](C)CC)C(=O)N[C@@H](C)C(=O)N[C@@H](CCSC)C(=O)N[C@@H](CC(=O)O)C(=O)N[C@@H](CCCNC(=N)N)C(=O)N[C@H](C(=O)N[C@@H](CCCCNC(=O)CC[C@H](NC(=O)CCCCCCCCCCCCCCC(=O)O)C(=O)O)C(=O)N[C@@H](CCC(N)=O)C(=O)N[C@@H](CCC(N)=O)C(=O)N[C@@H](CC(=O)O)C(=O)N[C@@H](Cc1ccccc1)C(=O)N[C@H](C(=O)N[C@@H](CC(N)=O)C(=O)N[C@@H](Cc1c[nH]c2ccccc12)C(=O)N[C@@H](CC(C)C)C(=O)N[C@@H](CC(C)C)C(=O)N[C@@H](C)C(=O)N[C@@H](CCC(N)=O)C(=O)N[C@@H](CCCNC(=N)N)C(N)=O)C(C)C)[C@@H](C)CC"}, "B5": {"name": "AT356 (peptide)", "peptide": "DYSIAMDKIK(C16 diacid)QQDFVNWLLAQK-NH2", "modifications": "N-terminus assumed", "SMILES": "CC[C@H](C)[C@H](NC(=O)[C@H](CO)NC(=O)[C@H](Cc1ccc(O)cc1)NC(=O)[C@@H](N)CC(=O)O)C(=O)N[C@@H](C)C(=O)N[C@@H](CCSC)C(=O)N[C@@H](CC(=O)O)C(=O)N[C@@H](CCCCN)C(=O)N[C@H](C(=O)N[C@@H](CCCCNC(=O)CCCCCCCCCCCCCCC(=O)O)C(=O)N[C@@H](CCC(N)=O)C(=O)N[C@@H](CCC(N)=O)C(=O)N[C@@H](CC(=O)O)C(=O)N[C@@H](Cc1ccccc1)C(=O)N[C@H](C(=O)N[C@@H](CC(N)=O)C(=O)N[C@@H](Cc1c[nH]c2ccccc12)C(=O)N[C@@H](CC(C)C)C(=O)N[C@@H](CC(C)C)C(=O)N[C@@H](C)C(=O)N[C@@H](CCC(N)=O)C(=O)N[C@@H](CCCCN)C(N)=O)C(C)C)[C@@H](C)CC"}, "B6": {"name": "AT500 (peptide)", "peptide": "PGTFISDYSIAMDRIK(C16 diacid)QQDFVNWLLAQR-NH2", "modifications": "N-terminus assumed", "SMILES": "CC[C@H](C)[C@H](NC(=O)[C@H](CO)NC(=O)[C@H](Cc1ccc(O)cc1)NC(=O)[C@H](CC(=O)O)NC(=O)[C@H](CO)NC(=O)[C@@H](NC(=O)[C@H](Cc1ccccc1)NC(=O)[C@@H](NC(=O)CNC(=O)[C@@H]1CCCN1)[C@@H](C)O)[C@@H](C)CC)C(=O)N[C@@H](C)C(=O)N[C@@H](CCSC)C(=O)N[C@@H](CC(=O)O)C(=O)N[C@@H](CCCNC(=N)N)C(=O)N[C@H](C(=O)N[C@@H](CCCCNC(=O)CCCCCCCCCCCCCCC(=O)O)C(=O)N[C@@H](CCC(N)=O)C(=O)N[C@@H](CCC(N)=O)C(=O)N[C@@H](CC(=O)O)C(=O)N[C@@H](Cc1ccccc1)C(=O)N[C@H](C(=O)N[C@@H](CC(N)=O)C(=O)N[C@@H](Cc1c[nH]c2ccccc12)C(=O)N[C@@H](CC(C)C)C(=O)N[C@@H](CC(C)C)C(=O)N[C@@H](C)C(=O)N[C@@H](CCC(N)=O)C(=O)N[C@@H](CCCNC(=N)N)C(N)=O)C(C)C)[C@@H](C)CC"}}, "note": "*1 amine or outer side, *2 acyl side, *3 side chain or, on linkers, in order; H or OH if unused. Where no end group is shown, it is not given here. Side-chain parts run from the residue outwards. The star is where a group is joined. C16 diacid = O=C(O)CCCCCCCCCCCCCCC(=O)*; γGlu = O=C(O)[C@H](CCC(=O)[*:2])N[*:1]; AEEA = NCCOCCOCC(=O)O"}
{"molecular_target": "T1, human GIP receptor (human, UniProt P48546 22-466)", "T1 sequence (looked up)": "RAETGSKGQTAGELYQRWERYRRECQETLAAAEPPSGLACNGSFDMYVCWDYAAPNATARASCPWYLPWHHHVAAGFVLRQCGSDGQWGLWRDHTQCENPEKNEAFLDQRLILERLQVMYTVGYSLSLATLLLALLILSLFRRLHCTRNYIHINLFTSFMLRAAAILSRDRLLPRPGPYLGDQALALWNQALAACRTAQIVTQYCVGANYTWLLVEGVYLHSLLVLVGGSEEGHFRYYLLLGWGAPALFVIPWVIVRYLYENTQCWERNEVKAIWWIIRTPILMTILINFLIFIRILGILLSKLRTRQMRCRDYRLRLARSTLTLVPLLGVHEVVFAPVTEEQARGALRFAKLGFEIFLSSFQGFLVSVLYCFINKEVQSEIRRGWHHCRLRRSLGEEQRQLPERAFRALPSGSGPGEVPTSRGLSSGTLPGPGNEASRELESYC", "test": "cell-based or functional assay", "units": {"CisBio cAMP antagonism % inhib": "%", "CisBio cAMP antagonism IC50": "nM", "cAMP antagonism % inhib": "%", "cAMP antagonism IC50": "nM"}}
{"binder": "B1", "CisBio cAMP antagonism % inhib": 89, "CisBio cAMP antagonism IC50": 12.6, "cAMP antagonism % inhib": 100, "cAMP antagonism IC50": 1}
{"molecular_target": "T1, human GIP receptor", "test": "cell-based or functional assay", "remark": "another data set of the same source", "units": {"DiscoveRx cAMP antagonism log IC50": "log M", "CisBio cAMP agonism % Efficacy": "%", "CisBio cAMP antagonism % inhib": "%", "CisBio cAMP antagonism IC50": "nM", "DiscoveRx cAMP antagonism % inhib": "%", "DiscoveRx cAMP antagonism IC50": "nM"}}
{"binder": "B2", "CisBio cAMP antagonism pIC50": 7.9, "DiscoveRx cAMP agonism Emax": 6, "DiscoveRx cAMP antagonism log IC50": -7.7}
{"binder": "B3", "CisBio cAMP agonism % Efficacy": 0, "CisBio cAMP antagonism % inhib": 85, "CisBio cAMP antagonism IC50": 39.8, "CisBio cAMP antagonism pIC50": 7.4, "DiscoveRx cAMP antagonism % inhib": 90, "DiscoveRx cAMP antagonism IC50": 21, "DiscoveRx cAMP antagonism log IC50": -7.7}
{"binder": "B4", "CisBio cAMP agonism % Efficacy": 13, "CisBio cAMP antagonism % inhib": 65, "CisBio cAMP antagonism IC50": 293, "CisBio cAMP antagonism pIC50": 6.5, "DiscoveRx cAMP agonism Emax": 5, "DiscoveRx cAMP antagonism % inhib": 85, "DiscoveRx cAMP antagonism IC50": 52, "DiscoveRx cAMP antagonism log IC50": -7.3}
{"binder": "B1", "CisBio cAMP agonism % Efficacy": 0, "CisBio cAMP antagonism % inhib": 89, "CisBio cAMP antagonism IC50": 12.6, "CisBio cAMP antagonism pIC50": 7.9, "DiscoveRx cAMP antagonism % inhib": 100, "DiscoveRx cAMP antagonism IC50": 1, "DiscoveRx cAMP antagonism log IC50": -8.9}
{"binder": "B5", "CisBio cAMP agonism % Efficacy": 0}
{"binder": "B6", "CisBio cAMP agonism % Efficacy": 4, "CisBio cAMP antagonism % inhib": 77, "CisBio cAMP antagonism IC50": 66.8, "CisBio cAMP antagonism pIC50": 7.2, "DiscoveRx cAMP antagonism % inhib": 90, "DiscoveRx cAMP antagonism IC50": 29, "DiscoveRx cAMP antagonism log IC50": -7.5}
